According to US20140228541A1:
pEC50, pIC50: −log10 of the molar value. Values belong to the substance of their own block, whether it stands above or below them.

Tests used:
[1] = biological target: somatostatin receptors on AR42J cells (rat); experiment: competition with ^111In(DTPA-octreotide) on AR42J cells, apparent IC50
[2] = biological target: binding target of the bombesin analog IMP493 (not named in the paragraph); experiment: assay not described
[3] = biological target: gastrin-releasing peptide receptor on PC-3 cells (UniProt P30550); experiment: competition with ^125I-BBN on PC-3 cells, repeat experiment
[4] = biological target: carcinoembryonic antigen (CEA) (UniProt P06731); experiment: SEC-HPLC shift; the labeled Fab in serum without CEA eluted at 10.331 min
carcinoembryonic antigen (CEA), sequence (P06731 35-685 limits assumed): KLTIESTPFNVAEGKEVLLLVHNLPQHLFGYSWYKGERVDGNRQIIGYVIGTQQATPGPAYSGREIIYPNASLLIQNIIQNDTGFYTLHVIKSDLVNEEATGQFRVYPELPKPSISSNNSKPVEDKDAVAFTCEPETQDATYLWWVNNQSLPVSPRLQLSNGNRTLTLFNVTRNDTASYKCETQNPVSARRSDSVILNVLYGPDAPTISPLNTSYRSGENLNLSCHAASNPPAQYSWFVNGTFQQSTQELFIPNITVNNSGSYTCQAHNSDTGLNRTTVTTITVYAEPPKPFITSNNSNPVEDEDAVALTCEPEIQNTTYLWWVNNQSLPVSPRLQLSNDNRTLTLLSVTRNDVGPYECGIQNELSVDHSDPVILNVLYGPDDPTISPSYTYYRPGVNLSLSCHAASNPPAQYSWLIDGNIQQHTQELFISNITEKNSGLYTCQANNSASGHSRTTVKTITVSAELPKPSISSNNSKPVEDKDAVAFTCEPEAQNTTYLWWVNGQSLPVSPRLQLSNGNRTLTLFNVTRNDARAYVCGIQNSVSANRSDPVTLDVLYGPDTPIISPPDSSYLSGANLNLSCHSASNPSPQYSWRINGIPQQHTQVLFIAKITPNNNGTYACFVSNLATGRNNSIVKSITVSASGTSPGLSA

somatostatin receptors on AR42J cells (rat), sequence (P30680 whole entry): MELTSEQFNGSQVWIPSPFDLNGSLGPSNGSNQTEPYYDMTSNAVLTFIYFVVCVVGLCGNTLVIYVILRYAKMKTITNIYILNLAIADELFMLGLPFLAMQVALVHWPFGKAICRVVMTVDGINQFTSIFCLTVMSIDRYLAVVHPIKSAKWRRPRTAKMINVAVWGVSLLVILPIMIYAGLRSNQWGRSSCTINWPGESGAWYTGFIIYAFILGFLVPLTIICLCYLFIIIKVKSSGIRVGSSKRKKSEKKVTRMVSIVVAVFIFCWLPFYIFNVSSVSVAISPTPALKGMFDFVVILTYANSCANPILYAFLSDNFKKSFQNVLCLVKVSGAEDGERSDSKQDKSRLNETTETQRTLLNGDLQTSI
gastrin-releasing peptide receptor on PC-3 cells, sequence (P30550 whole entry): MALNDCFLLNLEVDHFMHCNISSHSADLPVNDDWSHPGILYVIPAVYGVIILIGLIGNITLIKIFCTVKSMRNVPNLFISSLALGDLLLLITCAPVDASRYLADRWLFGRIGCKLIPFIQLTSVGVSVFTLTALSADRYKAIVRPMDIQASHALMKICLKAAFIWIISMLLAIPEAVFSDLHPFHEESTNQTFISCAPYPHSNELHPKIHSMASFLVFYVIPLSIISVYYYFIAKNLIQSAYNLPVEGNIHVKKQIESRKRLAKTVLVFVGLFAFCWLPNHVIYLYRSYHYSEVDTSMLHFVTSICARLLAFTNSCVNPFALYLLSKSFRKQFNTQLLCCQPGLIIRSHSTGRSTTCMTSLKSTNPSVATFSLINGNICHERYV

Substance: ^69Ga(IMP466) (peptide)
- pIC50 [1]: 7.89

Substance: Al^18F(NODA-MPAES)-hMN-14 Fab′
- SEC-HPLC retention time of major product after adding CEA [4]: 7.21 min

Substance: Al^19F(IMP466) (Al^19F complex of NOTA-D-Phe-Cys-Phe-D-Trp-Lys-Thr-Cys-Throl) (peptide)
- pIC50 [1]: 8.44

Results, then the substance that gave them:

- pEC50 [2]: 7.23
Substance: ^125I-Bombesin (Perkin-Elmer) (peptide)

- pIC50 [3]: 7.61
Substance: commercially available BBN peptide (positive control)
